Article PMC11853025, “Determining Ligand Binding and Specificity Within the β2-Integrin Family with a Novel Assay Platform” (Biomolecules, 2025)

Tests used:
Conditions in all cases: both partners purified
[1] = biological target: T1, ICAM-2 (recombinant, Sino Biological 10332-H03H) (UniProt P13598 25-223); assay: SPR; ICAM-1, ICAM-2, ICAM-3 amine-coupled to a CM5 chip; αI domains injected; 25 °C; HBST with 1 mM MgCl2
T1 construct: ICAM-2, bought recombinant protein; also called intercellular adhesion molecule 2; source: bought: Sino Biological
T1 sequence (looked up): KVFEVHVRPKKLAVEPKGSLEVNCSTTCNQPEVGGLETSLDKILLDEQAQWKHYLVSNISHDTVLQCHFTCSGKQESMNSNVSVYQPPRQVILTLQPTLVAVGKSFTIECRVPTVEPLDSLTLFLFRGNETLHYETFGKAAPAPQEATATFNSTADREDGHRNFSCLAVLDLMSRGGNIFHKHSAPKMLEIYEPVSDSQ

C3dg = biological target: T2, C3dg (UniProt P01024 955-1303); assay: SPR; C3b deposited on a CM5 chip (amine-coupled seed, then convertase-mediated deposition to about 5000 RU), iC3b and C3dg made from it on the chip; αI domains injected as dilution series, 120 s; Biacore T200, 25 °C; HBST (10 mM HEPES, 150 mM NaCl, 0.005% Tween-20, pH 7.4) with 1 mM MgCl2; Langmuir 1:1 fit, KD calculated
T2 construct: Held on the chip through the thioester-mediated deposit of its parent C3b; also called C3dg fragment; source: made on the SPR chip by co-injecting CR1 and factor I

C3b = biological target: T3, C3b (UniProt P01024 23-667; P01024 749-1663); assay: as above
T3 construct: A seed of about 100 RU C3b was amine-coupled; further C3b was deposited via its thioester moiety to about 5000 RU; also called C3b fragment; C3-derived opsonin; source: bought: Complement Technology (C3b, C3); deposited on the SPR chip from C3 by the FB/FD convertase

[2] = biological target: T4, ICAM-1 (recombinant, Sino Biological 10346-H03H) (UniProt P05362 28-480); assay: SPR; ICAM-1, ICAM-2, ICAM-3 amine-coupled to a CM5 chip; αI domains injected; 25 °C; HBST with 1 mM MgCl2
T4 construct: ICAM-1, bought recombinant protein; also called intercellular adhesion molecule 1; source: bought: Sino Biological
T4 sequence (P05362 28-480): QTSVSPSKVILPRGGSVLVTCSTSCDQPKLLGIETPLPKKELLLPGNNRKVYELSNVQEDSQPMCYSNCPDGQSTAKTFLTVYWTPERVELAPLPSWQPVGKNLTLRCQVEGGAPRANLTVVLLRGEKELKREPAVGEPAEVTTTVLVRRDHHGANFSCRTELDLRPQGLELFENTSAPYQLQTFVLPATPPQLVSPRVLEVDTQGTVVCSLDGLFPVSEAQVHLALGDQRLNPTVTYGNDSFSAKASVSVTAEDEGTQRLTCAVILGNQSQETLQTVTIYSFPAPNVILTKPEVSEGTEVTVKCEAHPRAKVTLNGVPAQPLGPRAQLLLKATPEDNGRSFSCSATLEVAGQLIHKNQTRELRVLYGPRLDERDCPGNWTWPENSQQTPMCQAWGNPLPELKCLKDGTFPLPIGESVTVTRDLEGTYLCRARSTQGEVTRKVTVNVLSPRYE

| Binder | binding result [1] | Kd (C3dg) | Kd (C3b) | binding result [2] |
| --- | --- | --- | --- | --- |
| CR3 αMI domain, high-affinity (HA) variant p.I332G (domain or fragment, integrin alpha-M (CD11b) αI domain, Q146-A334; beads captured by the His-tag; also called αMI HA; HA αMI) QEDSDIAFLIDGSGSIIPHDFRRMKEFVSTVMEQLKKSKTLFSLMQYSEEFRIHFTFKEFQNNPNPRSLVKPITQLLGRTHTATGIRKVVRELFNITNGARKNAFKILVVITDGEKFGDPLGYEDVIPEADREGVIRYVIGVGDAFRSEKSRQELNTIASKPPRDHVFQVNNFEALKTIQNQLREKGFA | binds | 1.4 µM | 11.6 µM |  |
| CR4 αXI domain, wild type (WT) (domain or fragment, UniProt P20702 148-336, looked up, integrin alpha-X (CD11c) αI domain, Q148-I336; also called αXI WT; WT αXI) QEQDIVFLIDGSGSISSRNFATMMNFVRAVISQFQRPSTQFSLMQFSNKFQTHFTFEEFRRSSNPLSLLASVHQLQGFTYTATAIQNVVHRLFHASYGARRDAAKILIVITDGKKEGDSLDYKDVIPMADAAGIIRYAIGVGLAFQNRNSWKELNDIASKPSQEHIFKVEDFDALKDIQNQLKEKIFAI |  | 30.4 µM | 55.5 µM |  |
| CR4 αXI domain, high-affinity (HA) variant p.I333G (domain or fragment, UniProt P20702 148-336, looked up, integrin alpha-X (CD11c) αI domain, Q148-I336; Addgene numbers tied to αLI and αXI by the order of the sentence; also called αXI HA; HA αXI) QEQDIVFLIDGSGSISSRNFATMMNFVRAVISQFQRPSTQFSLMQFSNKFQTHFTFEEFRRSSNPLSLLASVHQLQGFTYTATAIQNVVHRLFHASYGARRDAAKILIVITDGKKEGDSLDYKDVIPMADAAGIIRYAIGVGLAFQNRNSWKELNDIASKPSQEHIFKVEDFDALKDIQNQLKEKGFAI |  | 3.8 µM | 2.2 µM |  |
| CD11d αDI domain, high-affinity (HA) variant p.I332G (domain or fragment, UniProt Q13349 145-334, looked up, integrin alpha-D (CD11d) αI domain, P145-A334; plasmid bought from ATG:Biosynthetics; also called αDI HA; HA αDI) PHQEMDIVFLIDGSGSIDQNDFNQMKGFVQAVMGQFEGTDTLFALMQYSNLLKIHFTFTQFRTSPSQQSLVDPIVQLKGLTFTATGILTVVTQLFHHKNGARKSAKKILIVITDGQKYKDPLEYSDVIPQAEKAGIIRYAIGVGHAFQGPTARQELNTISSAPPQDHVFKVDNFAALGSIQKQLQEKGYA |  |  |  | binds |
